Experimental data: the Immune Epitope Database (IEDB)

biological target: HLA-A*01:01; assay: IEDB peptide-MHC binding, purified MHC/competitive/radioactivity; ≥ and ≤ were set here for values at or beyond the usual limits of such assays; settings: source organism: Human papillomavirus 16

In order of falling IC50:
1. ETTDLYCY  320 nM
2. YSKISEYRHY  147 nM
3. ISEYRHYCY  49 nM

biological target: HLA-A*03:01; assay: as above; settings: source organism: Human papillomavirus 16

In order of falling IC50:
1. AMFQDPQER  290 nM
2. LLIRCINCQK  92 nM
3. HLDKKQRFH  68 nM

biological target: HLA-A*11:01; assay: as above; settings: source organism: Human papillomavirus 16

In order of falling IC50:
1. AVCDKCLK  496 nM
2. FQDPQERPRK  453 nM
3. DIILECVYCK  280 nM
4. ISEYRHYCY  166 nM
5. IILECVYCK  125 nM
6. GIVCPICSQK  98 nM
7. LLIRCINCQK  24 nM
8. IVYRDGNPY  21 nM
9. AMFQDPQER  12 nM
10. GTTLEQQYNK  6 nM
11. TTLEQQYNK  6 nM

biological target: HLA-A*24:02; assay: as above; settings: source organism: Human papillomavirus 16

In order of falling IC50:
1. FYSRIREL  461 nM
2. VYDFAFRDL  360 nM
3. RAHYNIVTF  290 nM
4. RFHNIRGRW  220 nM
5. CYSLYGTTL  137 nM

biological target: HLA-A*01:01; assay: IEDB peptide-MHC binding, purified MHC/competitive/radioactivity; filed as Kd, often an IC50 or EC50 that approximates it; ≥ and ≤ were set here for values at or beyond the usual limits of such assays; settings: source organism: Human papillomavirus 16

In order of falling Kd:
1. HVDIRTLED  3760 nM
2. TTDLYCYEQ  3760 nM
3. EIDGPAGQA  3240 nM
4. QAEPDRAHY  2790 nM

biological target: HLA-A*03:01; assay: as above; settings: source organism: Human papillomavirus 16

In order of rising Kd:
1. IILECVYCK  3700 nM
2. SLYGTTLEQ  3750 nM

biological target: HLA-A*11:01; assay: as above; settings: source organism: Human papillomavirus 16

QQLLRREVY gave a Kd of 1190 nM.

biological target: HLA-A*24:02; assay: as above; settings: source organism: Human papillomavirus 16

In order of rising Kd:
1. MHQKRTAMF  4490 nM
2. LLRREVYDF  4780 nM
